The numbers were not newly measured in patent US10906951B2, “Modified natural killer cells and natural killer cell lines having increased cytotoxicity” (ONK THERAPEUTICS LIMITED, priority 2015, dated 2021), which cites them from elsewhere.

Sequences and labels used below:
B1: TRAIL variant (D269H/E195R): TRAIL variant of WO 2009/077857, encoded by the wildtype TRAIL gene containing the D269H/E195R mutation (protein)
chain: MAMMEVQGGPSLGQTCVLIVIFTVLLQSLCVAVTYVYFTNELKQMQDKYSKSGIACFLKEDDSYWDPNDEESMNSPCWQVKWQLRQLVRKMILRTSEETISTVQEKQQNISPLVRERGPQRVAAHITGTRGRSNTLSSPNSKNEKALGRKINSWESSRSGHSFLSNLHLRNGELVIHEKGFYYIYSQTYFRFQERIKENTKNDKQMVQYIYKYTSYPDPILLMKSARNSCWSKDAEYGLYSIYQGGIFELKENDRIFVSVTNEHLIDMHHEASFFGAFLVG
B2: D269A: TRAIL DR5 variant, WO 01/00832 (protein, UniProt P50591 1-281, looked up, variant D269A)
Tumor necrosis factor ligand …: MAMMEVQGGPSLGQTCVLIVIFTVLLQSLCVAVTYVYFTNELKQMQDKYSKSGIACFLKEDDSYWDPNDEESMNSPCWQVKWQLRQLVRKMILRTSEETISTVQEKQQNISPLVRERGPQRVAAHITGTRGRSNTLSSPNSKNEKALGRKINSWESSRSGHSFLSNLHLRNGELVIHEKGFYYIYSQTYFRFQEEIKENTKNDKQMVQYIYKYTSYPDPILLMKSARNSCWSKDAEYGLYSIYQGGIFELKENDRIFVSVTNEHLIDMAHEASFFGAFLVG
B3: N199V: TRAIL variant, MacFarlane 2005 (protein, UniProt P50591 1-281, looked up, variant N199V)
Tumor necrosis factor ligand …: MAMMEVQGGPSLGQTCVLIVIFTVLLQSLCVAVTYVYFTNELKQMQDKYSKSGIACFLKEDDSYWDPNDEESMNSPCWQVKWQLRQLVRKMILRTSEETISTVQEKQQNISPLVRERGPQRVAAHITGTRGRSNTLSSPNSKNEKALGRKINSWESSRSGHSFLSNLHLRNGELVIHEKGFYYIYSQTYFRFQEEIKEVTKNDKQMVQYIYKYTSYPDPILLMKSARNSCWSKDAEYGLYSIYQGGIFELKENDRIFVSVTNEHLIDMDHEASFFGAFLVG
B4: Y240A: TRAIL DR5 variant, WO 01/00832 (protein, UniProt P50591 1-281, looked up, variant Y240A)
Tumor necrosis factor ligand …: MAMMEVQGGPSLGQTCVLIVIFTVLLQSLCVAVTYVYFTNELKQMQDKYSKSGIACFLKEDDSYWDPNDEESMNSPCWQVKWQLRQLVRKMILRTSEETISTVQEKQQNISPLVRERGPQRVAAHITGTRGRSNTLSSPNSKNEKALGRKINSWESSRSGHSFLSNLHLRNGELVIHEKGFYYIYSQTYFRFQEEIKENTKNDKQMVQYIYKYTSYPDPILLMKSARNSCWSKDAEYGLASIYQGGIFELKENDRIFVSVTNEHLIDMDHEASFFGAFLVG
B5: Y213W/S215D: TRAIL variant, MacFarlane 2005 (protein, UniProt P50591 1-281, looked up, variant Y213W S215D)
Tumor necrosis factor ligand …: MAMMEVQGGPSLGQTCVLIVIFTVLLQSLCVAVTYVYFTNELKQMQDKYSKSGIACFLKEDDSYWDPNDEESMNSPCWQVKWQLRQLVRKMILRTSEETISTVQEKQQNISPLVRERGPQRVAAHITGTRGRSNTLSSPNSKNEKALGRKINSWESSRSGHSFLSNLHLRNGELVIHEKGFYYIYSQTYFRFQEEIKENTKNDKQMVQYIYKWTDYPDPILLMKSARNSCWSKDAEYGLYSIYQGGIFELKENDRIFVSVTNEHLIDMDHEASFFGAFLVG
B6: Y189A/Q193S/N199V/K201R/Y213W/S215D: TRAIL variant, MacFarlane 2005 (protein, UniProt P50591 1-281, looked up, variant Y189A Q193S N199V K201R Y213W S215D)
Tumor necrosis factor ligand …: MAMMEVQGGPSLGQTCVLIVIFTVLLQSLCVAVTYVYFTNELKQMQDKYSKSGIACFLKEDDSYWDPNDEESMNSPCWQVKWQLRQLVRKMILRTSEETISTVQEKQQNISPLVRERGPQRVAAHITGTRGRSNTLSSPNSKNEKALGRKINSWESSRSGHSFLSNLHLRNGELVIHEKGFYYIYSQTAFRFSEEIKEVTRNDKQMVQYIYKWTDYPDPILLMKSARNSCWSKDAEYGLYSIYQGGIFELKENDRIFVSVTNEHLIDMDHEASFFGAFLVG
B7: T261L/G160E/H270D/T200H: TRAIL DcR variant, Leary 2016 (protein, UniProt P50591 1-281, looked up, variant T261L G160E H270D T200H)
Tumor necrosis factor ligand …: MAMMEVQGGPSLGQTCVLIVIFTVLLQSLCVAVTYVYFTNELKQMQDKYSKSGIACFLKEDDSYWDPNDEESMNSPCWQVKWQLRQLVRKMILRTSEETISTVQEKQQNISPLVRERGPQRVAAHITGTRGRSNTLSSPNSKNEKALGRKINSWESSRSEHSFLSNLHLRNGELVIHEKGFYYIYSQTYFRFQEEIKENHKNDKQMVQYIYKYTSYPDPILLMKSARNSCWSKDAEYGLYSIYQGGIFELKENDRIFVSVLNEHLIDMDDEASFFGAFLVG
B8: T261L/G160E: TRAIL DcR variant, Leary 2016 (protein, UniProt P50591 1-281, looked up, variant T261L G160E)
Tumor necrosis factor ligand …: MAMMEVQGGPSLGQTCVLIVIFTVLLQSLCVAVTYVYFTNELKQMQDKYSKSGIACFLKEDDSYWDPNDEESMNSPCWQVKWQLRQLVRKMILRTSEETISTVQEKQQNISPLVRERGPQRVAAHITGTRGRSNTLSSPNSKNEKALGRKINSWESSRSEHSFLSNLHLRNGELVIHEKGFYYIYSQTYFRFQEEIKENTKNDKQMVQYIYKYTSYPDPILLMKSARNSCWSKDAEYGLYSIYQGGIFELKENDRIFVSVLNEHLIDMDHEASFFGAFLVG
B9: T261L/H270D: TRAIL DcR variant, Leary 2016 (protein, UniProt P50591 1-281, looked up, variant T261L H270D)
Tumor necrosis factor ligand …: MAMMEVQGGPSLGQTCVLIVIFTVLLQSLCVAVTYVYFTNELKQMQDKYSKSGIACFLKEDDSYWDPNDEESMNSPCWQVKWQLRQLVRKMILRTSEETISTVQEKQQNISPLVRERGPQRVAAHITGTRGRSNTLSSPNSKNEKALGRKINSWESSRSGHSFLSNLHLRNGELVIHEKGFYYIYSQTYFRFQEEIKENTKNDKQMVQYIYKYTSYPDPILLMKSARNSCWSKDAEYGLYSIYQGGIFELKENDRIFVSVLNEHLIDMDDEASFFGAFLVG
B10: T261L: TRAIL DcR variant, Leary 2016 (protein, UniProt P50591 1-281, looked up, variant T261L)
Tumor necrosis factor ligand …: MAMMEVQGGPSLGQTCVLIVIFTVLLQSLCVAVTYVYFTNELKQMQDKYSKSGIACFLKEDDSYWDPNDEESMNSPCWQVKWQLRQLVRKMILRTSEETISTVQEKQQNISPLVRERGPQRVAAHITGTRGRSNTLSSPNSKNEKALGRKINSWESSRSGHSFLSNLHLRNGELVIHEKGFYYIYSQTYFRFQEEIKENTKNDKQMVQYIYKYTSYPDPILLMKSARNSCWSKDAEYGLYSIYQGGIFELKENDRIFVSVLNEHLIDMDHEASFFGAFLVG
B11: H270D: TRAIL DcR variant, Leary 2016 (protein, UniProt P50591 1-281, looked up, variant H270D)
Tumor necrosis factor ligand …: MAMMEVQGGPSLGQTCVLIVIFTVLLQSLCVAVTYVYFTNELKQMQDKYSKSGIACFLKEDDSYWDPNDEESMNSPCWQVKWQLRQLVRKMILRTSEETISTVQEKQQNISPLVRERGPQRVAAHITGTRGRSNTLSSPNSKNEKALGRKINSWESSRSGHSFLSNLHLRNGELVIHEKGFYYIYSQTYFRFQEEIKENTKNDKQMVQYIYKYTSYPDPILLMKSARNSCWSKDAEYGLYSIYQGGIFELKENDRIFVSVTNEHLIDMDDEASFFGAFLVG
B12: T200H: TRAIL DcR variant, Leary 2016 (protein, UniProt P50591 1-281, looked up, variant T200H)
Tumor necrosis factor ligand …: MAMMEVQGGPSLGQTCVLIVIFTVLLQSLCVAVTYVYFTNELKQMQDKYSKSGIACFLKEDDSYWDPNDEESMNSPCWQVKWQLRQLVRKMILRTSEETISTVQEKQQNISPLVRERGPQRVAAHITGTRGRSNTLSSPNSKNEKALGRKINSWESSRSGHSFLSNLHLRNGELVIHEKGFYYIYSQTYFRFQEEIKENHKNDKQMVQYIYKYTSYPDPILLMKSARNSCWSKDAEYGLYSIYQGGIFELKENDRIFVSVTNEHLIDMDHEASFFGAFLVG
B13: T261L/G160E/H270D: TRAIL DcR variant, Leary 2016 (protein, UniProt P50591 1-281, looked up, variant T261L G160E H270D)
Tumor necrosis factor ligand …: MAMMEVQGGPSLGQTCVLIVIFTVLLQSLCVAVTYVYFTNELKQMQDKYSKSGIACFLKEDDSYWDPNDEESMNSPCWQVKWQLRQLVRKMILRTSEETISTVQEKQQNISPLVRERGPQRVAAHITGTRGRSNTLSSPNSKNEKALGRKINSWESSRSEHSFLSNLHLRNGELVIHEKGFYYIYSQTYFRFQEEIKENTKNDKQMVQYIYKYTSYPDPILLMKSARNSCWSKDAEYGLYSIYQGGIFELKENDRIFVSVLNEHLIDMDDEASFFGAFLVG
B14: D218A: TRAIL DcR variant, WO 01/00832 (protein, UniProt P50591 1-281, looked up, variant D218A)
Tumor necrosis factor ligand …: MAMMEVQGGPSLGQTCVLIVIFTVLLQSLCVAVTYVYFTNELKQMQDKYSKSGIACFLKEDDSYWDPNDEESMNSPCWQVKWQLRQLVRKMILRTSEETISTVQEKQQNISPLVRERGPQRVAAHITGTRGRSNTLSSPNSKNEKALGRKINSWESSRSGHSFLSNLHLRNGELVIHEKGFYYIYSQTYFRFQEEIKENTKNDKQMVQYIYKYTSYPAPILLMKSARNSCWSKDAEYGLYSIYQGGIFELKENDRIFVSVTNEHLIDMDHEASFFGAFLVG

The target of one data set is DR5 (Homo sapiens, UniProt O14763). The settings on record: in words; known from WO 2009/077857, Van der Sloot 2006, MacFarlane 2005, WO 01/00832; cited from earlier work.
On to B1, for which the “affinity for DR5” value is “significantly increases the affinity”. Regarding B2, the “affinity for DR5” value is “DR5 variants”. B3: the “affinity for DR5” value is reported as “increased affinity for DR5”.

With B4, the “affinity for DR5” value is given as “DR5 variants”. For the molecule B5, the “affinity for DR5” value is “increased affinity for DR5”. For the molecule B6, the “affinity for DR5” value is reported as “increased affinity for DR5”.

The test system of another data set is TRAIL decoy receptors (DcR1 and DcR2). The conditions noted are these: in words; known from WO 2009/077857, Leary 2016, WO 01/00832; cited from earlier work.
For the molecule B1, the “affinity for TRAIL decoy receptors” value is “reducing the affinity”. With B7, the “affinity for TRAIL decoy receptors” value is “decreased affinity for TRAIL decoy receptors”. For B8, the “affinity for TRAIL decoy receptors” value was “decreased affinity for TRAIL decoy receptors”.

On to B9, for which the “affinity for TRAIL decoy receptors” value is “decreased affinity for TRAIL decoy receptors”.

For the molecule B10, the “affinity for TRAIL decoy receptors” value is given as “decreased affinity for TRAIL decoy receptors”.

Turning to B11, the “affinity for TRAIL decoy receptors” value is reported as “decreased affinity for TRAIL decoy receptors”. Turning to B12, the “affinity for TRAIL decoy receptors” value was “decreased affinity for TRAIL decoy receptors”. Regarding B13, the “affinity for TRAIL decoy receptors” value is “decreased affinity for TRAIL decoy receptors”. For the molecule B14, the “affinity for TRAIL decoy receptors” value is on record as “DcR variants”.
